Data as given in the supplement of paper PMC9170038.

Tested on: MS2 coat protein
Assay: apparent KD of MS2 coat protein; designed switch direction (-1 OFF switch, 1 ON switch): -1; higher = weaker reporter binding
Method in brief: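 Designed RNA switches sharing common flanks were transcribed on Illumina chips by stalled E. coli RNA polymerase. They were titrated with SNAP-549-labelled MS2 coat protein, from 0.7 or 1.5 nM doubling to 3 µM, in Tris-HCl pH 7.5 buffer with KCl, MgCl2, BSA, DTT, tRNA and Tween-20. Titrations ran without input, with 200 uM small-molecule ligand, or with an oligonucleotide input. The apparent KD of each design is the median over its clusters, after curve-fitting of normalised cluster fluorescence.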

[1] = input ligand: microRNA oligo, concentration not stated
[2] = Eterna round: R95, input ligand: FMN 200 uM
[3] = Eterna round: R95, input ligand: microRNA oligo, concentration not stated
[4] = Eterna round: R95, input ligand: none

## GUAAAACAUGUAGGAUAUGCGUGGCAAAGCUAUGCAGAAGGACAUGAGGAUCACCCAUGUUAAAGCGUCUGAGUACAGAUGCAA [Mat - Exclusion NG 1 - Mod of JL - D96] (Eterna round: R96, puzzle: Exclusion NG 1)
Input ligand: FMN 200 uM
  apparent KD of MS2 coat protein: 445 nM
[1]
  apparent KD of MS2 coat protein: 27.4 nM
Input ligand: none
  apparent KD of MS2 coat protein: 36 nM

## UUUCAGCAAGGAUAUACGGGCUGUGCUUUUCAUUUCUUACAACAUGAGGAUCACCCAUGUAGAAGGUGCAACUU [Ex2 #10] (Eterna round: R97, puzzle: Exclusion 2)
Input ligand: FMN 200 uM
  apparent KD of MS2 coat protein: 110 nM
Input ligand: none
  apparent KD of MS2 coat protein: 26.5 nM

## UUUAAAACAUAGGAUAUCGAAAUAAUCAUUUAACGAGAAGGAUGAACAUGAGGAUCACCCAUGUGGUAUCAUGG [Mat - Exclusion 6 - JL Mod - D18] (puzzle: Exclusion 6)
[2]
  apparent KD of MS2 coat protein: 364 nM
[3]
  apparent KD of MS2 coat protein: 230 nM
[4]
  apparent KD of MS2 coat protein: 409 nM

## UGCAUGCUAGGAUAUACGGGACAUUAGGGUUCGUUGUGUGGACAUGAGGAUCACCCAUGUAGAAGGAGCGUGCU [Mod of JL-ex2-2.15 mat747 mod] (puzzle: Exclusion 2)
[3]
  apparent KD of MS2 coat protein: 69.3 nM

## GUGAAGUAAGGAUAUACAUGAGGAUCACCCAUGUAAGGGAAGGUGAUGGGAGUAGAUAGUAGAAGGUACGAGGA [JR_Exclu3_Sub066] (puzzle: Exclusion 3)
[3]
  apparent KD of MS2 coat protein: 103 nM

## GCCUGCUGGCGAGGAUAUUCUGUGCGGUUCCGGCUCGUGUCUGUUACAUGAGGAUCACCCAUGUGGGAGAAGGUGUCUGUGGCC [Design 100] (Eterna round: R96, puzzle: Exclusion NG 2)
Input ligand: FMN 200 uM
  apparent KD of MS2 coat protein: 12.5 nM
[1]
  apparent KD of MS2 coat protein: 10.1 nM
Input ligand: none
  apparent KD of MS2 coat protein: 14.7 nM

## AGUUGGCGAGGAUAUACAUGAGGAUCACCCAUGUGAAAUUAAAGUGAGGAAAUGAAAAGUAGAAGGCGCUGACA [Mat - Exclusion 3 - Mod of Salish D56] (puzzle: Exclusion 3)
[2]
  apparent KD of MS2 coat protein: 277 nM
[3]
  apparent KD of MS2 coat protein: 31.7 nM
[4]
  apparent KD of MS2 coat protein: 46.7 nM

## GUGGUACAUGAGGAUCACCCAUGUUAGGAUAUCGCGUGAGGUUUUACUUCCACACACACGAGAAGGGACGUCUU (puzzle: Exclusion 1)
[3]
  apparent KD of MS2 coat protein: 41 nM

## CUGAGCUGAGGAUAUACAUGAGGAUCACCCAUGUAAAGCAGCUUGCGUACAAGCAGAUGUAGAAGGCAGUUCGG [Mod of JL 17 - Jieux - Exclusion 3] (Eterna round: R97, puzzle: Exclusion 3)
Input ligand: FMN 200 uM
  apparent KD of MS2 coat protein: 24.1 nM
Input ligand: none
  apparent KD of MS2 coat protein: 14.7 nM

## AAAAAGGUAGGAUAUACGAAAAAAAAGGGUAGAAAAAAAACACAUGAGGAUCACCCAUGUAGAAGGACCAAAAU [salish99_ex2_r3_044] (puzzle: Exclusion 2)
[2]
  apparent KD of MS2 coat protein: 82.8 nM
[3]
  apparent KD of MS2 coat protein: 35.3 nM
[4]
  apparent KD of MS2 coat protein: 36.6 nM

## GAUCUGUGAGGAUAUUUAUCGUAGUGCGUGUAGCCUGCGCCGGAGAAGGCACAUGAGGAUCACCCAUGUUCUAA [Eternabot (L1) Solution 45] (Eterna round: R97, puzzle: Exclusion 4)
Input ligand: FMN 200 uM
  apparent KD of MS2 coat protein: 57.2 nM
Input ligand: none
  apparent KD of MS2 coat protein: 51.8 nM

## UGUUGUUCAGGAUAUGAUGUAUAAUACAUGAGGAUCACCCAUGUAGAUCCUGAAUUAACAUCAGAAGGGAAUAUUG [salish99_ex5_r4_101] (Eterna round: R97, puzzle: Exclusion 5)
Input ligand: FMN 200 uM
  apparent KD of MS2 coat protein: 19 nM
Input ligand: none
  apparent KD of MS2 coat protein: 17 nM

## GCUGGAAGAGGAUAUACAUAACGUGCGUCAGCACGAGGCCUACAUGAGGAUCACCCAUGUAGAAGGCUUCCAGC [EX2 #77] (Eterna round: R97, puzzle: Exclusion 2)
Input ligand: FMN 200 uM
  apparent KD of MS2 coat protein: 27.9 nM
Input ligand: none
  apparent KD of MS2 coat protein: 15.5 nM

## GCACUGACAGGAUAUACAUGAGGAUCACCCAUGUGACCCUUAUAGUACUCGCGUACAAGUAGAAGGGUCUGUGC [Omei Ex3 Model Bachelor's Dilema v31] (Eterna round: R97, puzzle: Exclusion 3)
Input ligand: FMN 200 uM
  apparent KD of MS2 coat protein: 382 nM
Input ligand: none
  apparent KD of MS2 coat protein: 107 nM

## GUCAUCGCAGGAUAUUAGAAUUUUUACAUGAGGAUCACCCAUGUUAAUUGGGUCUAAGUCUAAGAAGGGCGAUGAA [JR_EX5_Sub012] (Eterna round: R97, puzzle: Exclusion 5)
Input ligand: FMN 200 uM
  apparent KD of MS2 coat protein: 105 nM
Input ligand: none
  apparent KD of MS2 coat protein: 32.4 nM

## UCUCCCGCUCGAGGAUAUCCAUAGAGCAACUGAGGAGAAGGCGAGCGUCCUAAACAUGAGGAUCACCCAUGUGACCUCCCGAAC [Zabiledila] (Eterna round: R96, puzzle: Exclusion NG 1)
Input ligand: FMN 200 uM
  apparent KD of MS2 coat protein: 55 nM
[1]
  apparent KD of MS2 coat protein: 41.2 nM
Input ligand: none
  apparent KD of MS2 coat protein: 39.1 nM

## CUUUUGUUAGGAUAUUAGUAGUAAAUAAAUAAAAUUACUACUGAGAAGGCACAUGAGGAUCACCCAUGUUCCUC [salish99_ex4_r3_045] (puzzle: Exclusion 4)
[3]
  apparent KD of MS2 coat protein: 25.3 nM

## CAUUAUGUUGAGGAUAUGCGCCGGCAAACUGACGCAGAAGGCGACACAUGAGGAUCACCCAUGUCAGUUCGCGA [salish99_ex6_r004_423] (Eterna round: R97, puzzle: Exclusion 6)
Input ligand: FMN 200 uM
  apparent KD of MS2 coat protein: 13.3 nM
Input ligand: none
  apparent KD of MS2 coat protein: 14.9 nM

## GGUUAUUGCAAGGAUAUGCUUUUUUUUGAUAUUGCAGAAGGUGCAACAUGAGGAUCACCCAUGUUGGAUGGGUU [JR_E6_Sub019] (puzzle: Exclusion 6)
[3]
  apparent KD of MS2 coat protein: 94.1 nM

## CUUUUGUGAGGAUAUUAGUAGUAAAUAAUUAAAAUUAUUACUGAGAAGGCACAUGAGGAUCACCCAUGUAACUC [JR_Ex4_Sub027] (Eterna round: R97, puzzle: Exclusion 4)
Input ligand: FMN 200 uM
  apparent KD of MS2 coat protein: 400 nM
Input ligand: none
  apparent KD of MS2 coat protein: 49.9 nM

## CCUUUGUCAGGAUAUCAGUACAGGUCGAGUUUAGACCUGUUUGAGAAGGGACAUGAGGAUCACCCAUGUAAAAC [Inzaerle] (puzzle: Exclusion 4)
[3]
  apparent KD of MS2 coat protein: 78 nM

## ACAAGCUUUGAUAUCCUUAACAUGAGGAUCACCCAUGUUCGUCUUAUGAUGGUCUGAUCCCUGAGGAUCGGACCGUU [JL-sv1-2.08 Brourd Mod] (puzzle: Sensor v3, turn-off variant 1)
[2]
  apparent KD of MS2 coat protein: 33.7 nM
[3]
  apparent KD of MS2 coat protein: 96.2 nM
[4]
  apparent KD of MS2 coat protein: 35.5 nM

## AGAAACAGAGGAUAUACUUGAGGAUCACCCAAGUGUCACGGAAACACUGUGCUCCUUUGUAGAAGGCUGGAAUA [Dibeon] (Eterna round: R97, puzzle: Exclusion 3)
Input ligand: FMN 200 uM
  apparent KD of MS2 coat protein: 382 nM
Input ligand: none
  apparent KD of MS2 coat protein: 63 nM

## GGUUGGCGAGGAUAUACAUGAGGAUCACCCAUGUGAGAGGAAAAAGUGAGAACGAAAAGUAGAAGGCGCUGACG [salish99_ex3_r3_062] (puzzle: Exclusion 3)
[2]
  apparent KD of MS2 coat protein: 119 nM
[3]
  apparent KD of MS2 coat protein: 78.9 nM
[4]
  apparent KD of MS2 coat protein: 225 nM

## GUGCAACAUGAGGAUCACCCAUGUCAGGAUAUGCGAAUUUCAUCAAAAGAUGAAAUUUGCAGAAGGGACAGCAC [Omei Ex1 A16] (Eterna round: R97, puzzle: Exclusion 1)
Input ligand: FMN 200 uM
  apparent KD of MS2 coat protein: 32 nM
Input ligand: none
  apparent KD of MS2 coat protein: 24.4 nM

## GAGGCAUGCCGAGGUCCACACAUGAGGAUCACCCAUGUAAUGACAGGCUUUUUACUCGUUUUAUCGCUAUCGCGUUC [Incebece] (puzzle: Sensor v3, turn-off variant 1)
[2]
  apparent KD of MS2 coat protein: 13.5 nM
[3]
  apparent KD of MS2 coat protein: 26.4 nM
[4]
  apparent KD of MS2 coat protein: 12.8 nM

## UGAUCAAAUGUCAGGAUAUGCUAUUAGAAAUAAUAGCAGAAGGGACAUGAGGAUCACCCAUGUCUUGUCGAUUU [Magic-01] (puzzle: Brourd's mod of Exclusion 4)
[2]
  apparent KD of MS2 coat protein: 93.5 nM
[3]
  apparent KD of MS2 coat protein: 19.2 nM
[4]
  apparent KD of MS2 coat protein: 20.1 nM
